What was measured:
His-tagged ERK1 = biological target: T1, His-tagged ERK1 (UniProt P27361 1-379); experiment: pull-down; GST pull-down: purified GST-SIX1 fusion protein with purified His-tagged ERK1/2; conditions: both partners purified
T1 construct: Extracellular signal-regulated protein kinase 1 (ERK1); Built in pET28a; also called His-tagged ERK1/2; source: E. coli BL21, purified (His-Sepharose beads)

His-tagged ERK2 = biological target: T2, His-tagged ERK2 (UniProt P28482 1-360); experiment: as above; conditions: both partners purified
T2 construct: Extracellular signal-regulated protein kinase 2 (ERK2); Built in pET28a; also called His-tagged ERK1/2; source: E. coli BL21, purified (His-Sepharose beads)
T2 sequence (P28482 whole entry): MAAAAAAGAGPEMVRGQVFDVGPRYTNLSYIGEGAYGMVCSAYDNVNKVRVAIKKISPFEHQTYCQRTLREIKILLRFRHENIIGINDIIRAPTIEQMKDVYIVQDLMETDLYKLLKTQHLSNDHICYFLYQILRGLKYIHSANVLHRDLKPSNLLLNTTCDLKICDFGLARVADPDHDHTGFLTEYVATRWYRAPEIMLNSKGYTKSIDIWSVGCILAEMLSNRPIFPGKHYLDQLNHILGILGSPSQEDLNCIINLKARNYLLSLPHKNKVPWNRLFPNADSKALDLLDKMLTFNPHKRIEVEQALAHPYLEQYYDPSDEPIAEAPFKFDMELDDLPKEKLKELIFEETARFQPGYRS

T1 sequence (P27361 whole entry, the tested form may be a part): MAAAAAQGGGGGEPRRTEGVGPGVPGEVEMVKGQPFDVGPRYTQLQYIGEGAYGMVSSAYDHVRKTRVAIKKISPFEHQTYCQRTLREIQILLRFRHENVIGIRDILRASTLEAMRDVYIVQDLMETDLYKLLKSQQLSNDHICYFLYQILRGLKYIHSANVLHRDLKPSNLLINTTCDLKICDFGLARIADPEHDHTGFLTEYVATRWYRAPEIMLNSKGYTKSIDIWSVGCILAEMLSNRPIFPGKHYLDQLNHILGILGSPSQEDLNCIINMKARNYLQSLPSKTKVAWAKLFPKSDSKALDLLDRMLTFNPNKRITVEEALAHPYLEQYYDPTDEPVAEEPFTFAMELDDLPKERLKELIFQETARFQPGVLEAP

binding result (His-tagged ERK1): binds
binding result (His-tagged ERK2): binds
B1: GST-SIX1 fusion protein (natural protein, human, UniProt Q15475 1-284, looked up)
chain: MSMLPSFGFTQEQVACVCEVLQQGGNLERLGRFLWSLPACDHLHKNESVLKAKAVVAFHRGNFRELYKILESHQFSPHNHPKLQQLWLKAHYVEAEKLRGRPLGAVGKYRVRRKFPLPRTIWDGEETSYCFKEKSRGVLREWYAHNPYPSPREKRELAEATGLTTTQVSNWFKNRRQRDRAAEAKERENTENNNSSSNKQNQLSPLEGGKPLMSSSEEEFSPPQSPDQNSVLLLQGNMGHARSSNYSLPGLTASQPSHGLQTHQHQLQDSLLGPLTSSLVDLGS
notes: Sine oculis homeobox 1 (SIX1), human; Built in pGEX-KG; source: E. coli BL21, purified (glutathione-Sepharose 4B)
